Results published in paper PMC2877510 (Journal of biomolecular NMR, 2010).

What was measured:
[1] = molecular target: carboxyl terminal domain of rat Cx43 (Cx43CT; residues S255-I382) (rat, UniProt P08050 255-382); experiment: NMR titration
[2] = molecular target: ubiquitin (from bovine erythrocytes) (bovine, UniProt P0CG53 1-76); experiment: NMR titration

Sequence of carboxyl terminal domain of rat Cx43 (Cx43CT; residues S255-I382) (P08050 255-382): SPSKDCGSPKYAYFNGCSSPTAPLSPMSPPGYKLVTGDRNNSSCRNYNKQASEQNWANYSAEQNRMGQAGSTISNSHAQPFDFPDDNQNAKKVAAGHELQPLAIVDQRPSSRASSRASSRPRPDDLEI

B1: UBA domain of CIP75 (connexin43-interacting protein of approximately 75 kDa), residues M549-S596 (domain or fragment, mouse, UniProt Q99NB8 549-596, looked up)
chain: MPEVRFQQQLEQLNSMGFINREANLQALIATGGDINAAIERLLGSQLS
Does B1 bind [1]?
Result: binds

Does B1 bind [2]?
Result: binds
